T1: DnaJ C268A (Salmonella enterica serovar Typhimurium, UniProt P0A1G7 1-379, C268A)
T1 sequence (looked up): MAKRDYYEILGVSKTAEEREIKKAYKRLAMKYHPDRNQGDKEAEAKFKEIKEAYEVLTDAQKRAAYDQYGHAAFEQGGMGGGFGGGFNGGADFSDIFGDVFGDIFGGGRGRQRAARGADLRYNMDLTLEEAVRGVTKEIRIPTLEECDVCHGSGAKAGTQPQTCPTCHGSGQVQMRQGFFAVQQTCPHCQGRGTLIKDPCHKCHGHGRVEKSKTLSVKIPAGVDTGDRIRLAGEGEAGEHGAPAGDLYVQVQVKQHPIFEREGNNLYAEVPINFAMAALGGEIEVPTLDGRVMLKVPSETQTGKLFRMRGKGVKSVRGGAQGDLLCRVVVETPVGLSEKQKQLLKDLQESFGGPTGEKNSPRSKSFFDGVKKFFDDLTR


Tests used:
[1] = target: DnaJ-6His (Salmonella enterica serovar Typhimurium) (UniProt P0A1G7); assay: MST
DnaJ C268A = target: T1, DnaJ C268A; assay: pull-down

Molecule | Kd [1] [nM] | binding result (DnaJ C268A)
oxidized DksA (recombinant, GST removed) (from UniProt P0A1G5 1-151) (natural protein) | 65 | 
GST-DksA (wild type, pull-down done in the absence of DTT) (natural protein, Salmonella enterica serovar Typhimurium, UniProt P0A1G5 1-151, looked up) MQEGQNRKTSSLSILAIAGVEPYQEKPGEEYMNEAQLSHFKRILEAWRNQLRDEVDRTVTHMQDEAANFPDPVDRAAQEEEFSLELRNRDRERKLIKKIEKTLKKVEDEDFGYCESCGVEIGIRRLEARPTADLCIDCKTLAEIREKQMAG |  | binds
